Test results reported in patent publication US20170189505A1.

Biological target: HLA-A*24 (human)
Experiment: UV peptide exchange, anti-b2m ELISA

RYAEEVGIF [SEQ ID No 199 peptide …] was tested, and the peptide exchange yield was 50 to 75%.

For YYGPSLFLL [SEQ ID No 200 peptide …], the peptide exchange yield was 50 to 75%.

Binder IYATEAHVF [SEQ ID No 201 peptide …] has a peptide exchange yield of 50 to 75%.

VYWDSAGAAHF [SEQ ID No 202 peptide …] was tested, and the peptide exchange yield was over 75%.

With TYELRYFQI [SEQ ID No 204 peptide …] the peptide exchange yield was over 75%.

With AYVVFVSTL [SEQ ID No 207 peptide …] the peptide exchange yield was 20 to 49%.

TYKDEGNDYF [SEQ ID No 209 peptide …] gave a peptide exchange yield of 50 to 75%.

Work on YYKSTSSAF [SEQ ID No 218 peptide …] yielded a peptide exchange yield of 50 to 75%.

TFSVSSHLF [SEQ ID No 222 peptide …] gave a peptide exchange yield of 50 to 75%.

Binder QYLGQIQHI [SEQ ID No 268 peptide …] has a peptide exchange yield of 50 to 75%.

Binder YFIDSTNLKTHF [SEQ ID No 269 peptide …] has a peptide exchange yield of 50 to 75%.

Work on NYYEVHKELF [SEQ ID No 270 peptide …] yielded a peptide exchange yield of 50 to 75%.

In the case of VYQGHTALL [SEQ ID No 277 peptide …], the peptide exchange yield is reported as over 75%.

PYRLIFEKF [SEQ ID No 281 peptide …] was tested, and the peptide exchange yield was 20 to 49%.

Work on HYPPVQVLF [SEQ ID No 285 peptide …] yielded a peptide exchange yield of 50 to 75%.

Binder LYITEPKTI [SEQ ID No 287 peptide …] has a peptide exchange yield of 50 to 75%.
